The results in this text go back to US20210388087A1 (Chugai, published 2021).

To fix the notation:
B1: GLS3000 G89P (antibody, name in Kabat numbering, V domains shown)
VH: QVQLVESGGGVVQPGRSLRLSCAASGFTFSNAWMHWVRQAPGKGLEWVAQIKAKSNNYATYYAESVKGRFTISRDDSKNSLYLQMNSLKTEDTAVYYCRYVHYGAYYGVDAWGQGTTVTVSS
VL: DIVMTQSPLSLPVTPGEPASISCRSSQSLVHSNRNTYLHWYQQKPGQAPRLLIYKVSNRFSGVPDRFSGSGSGTDFTLKISRVEAEDVGVYYCPQGTQVPYTFGQGTKLEIK
notes: one-arm IgG as m2
B2: GLS3000 G89V (antibody, name in Kabat numbering, V domains shown)
VH: B1 VH
VL: B1 VL with P94V
notes: one-arm IgG as m2
B3: GLS3000 G91S (antibody, name in Kabat numbering, V domains shown)
VH: B1 VH
VL: B1 VL with P94G, G96S
notes: one-arm IgG as m2
B4: GLS3000 G91E (antibody, name in Kabat numbering, V domains shown)
VH: B1 VH
VL: B1 VL with P94G, G96E
notes: one-arm IgG as m2
B5: GLS3000 G91P (antibody, name in Kabat numbering, V domains shown)
VH: B1 VH
VL: B1 VL with P94G, G96P
notes: one-arm IgG as m2
B6: GLS3000 H27dE (antibody, name in Kabat numbering, V domains shown)
VH: B1 VH
VL: B1 VL with H31E, P94G
notes: one-arm IgG as m2
B7: GLS3000 G89T (antibody, name in Kabat numbering, V domains shown)
VH: B1 VH
VL: B1 VL with P94T
notes: one-arm IgG as m2
B8: GLS3000 G89W (antibody, name in Kabat numbering, V domains shown)
VH: B1 VH
VL: B1 VL with P94W
notes: one-arm IgG as m2
B9: GLS3000 G91A (antibody, name in Kabat numbering, V domains shown)
VH: B1 VH
VL: B1 VL with P94G, G96A
notes: one-arm IgG as m2
B10: GLS3000 G89Q (antibody, name in Kabat numbering, V domains shown)
VH: B1 VH
VL: B1 VL with P94Q
notes: one-arm IgG as m2
B11: GLS3000 G91Y (antibody, name in Kabat numbering, V domains shown)
VH: B1 VH
VL: B1 VL with P94G, G96Y
notes: one-arm IgG as m2
B12: GLS3000 G91T (antibody, name in Kabat numbering, V domains shown)
VH: B1 VH
VL: B1 VL with P94G, G96T
notes: one-arm IgG as m2
B13: GLS3000 G89Y (antibody, name in Kabat numbering, V domains shown)
VH: B1 VH
VL: B1 VL with P94Y
notes: one-arm IgG as m2
B14: GLS3000 H27dD (antibody, name in Kabat numbering, V domains shown)
VH: B1 VH
VL: B1 VL with H31D, P94G
notes: one-arm IgG as m2
B15: GLS3000 G89R (antibody, name in Kabat numbering, V domains shown)
VH: B1 VH
VL: B1 VL with P94R
notes: one-arm IgG as m2
B16: GLS3000 G91D (antibody, name in Kabat numbering, V domains shown)
VH: B1 VH
VL: B1 VL with P94G, G96D
notes: one-arm IgG as m2

Substitutions are numbered along the chain they refer to.

The target in the assay is T1, CD3 epsilon homodimer protein (UniProt P07766 23-126).
T1 construct: also called CD3 (CD3 epsilon)
T1 sequence (P07766 23-126): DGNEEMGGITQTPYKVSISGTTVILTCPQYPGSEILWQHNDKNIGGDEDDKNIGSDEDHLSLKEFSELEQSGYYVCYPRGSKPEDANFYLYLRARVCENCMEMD
Nature of the assay: SPR Biacore T200, CD3e homodimer on chip, vs unaltered GLS3000 antibody. (In SPR one partner is held on a chip, and binding of the other changes the refractive index at the surface.)
Consider B1, for which the “ratio of amounts bound (Z=Y/X)” value came to 0.35. Regarding B2, the “ratio of amounts bound (Z=Y/X)” value was 1.63. As for B3, the figure is 0.26; as for B4, 0.16; as for B5, 0.27. In the case of B6, the “ratio of amounts bound (Z=Y/X)” value was determined as 0.23. With B7, the “ratio of amounts bound (Z=Y/X)” value was determined as 1.03. Take B8: the “ratio of amounts bound (Z=Y/X)” value was determined as 0.5. As for B9, the figure is 0.27; as for B10, 0.38.

With B11, the “ratio of amounts bound (Z=Y/X)” value stood at 0.17. As for B12, the figure is 0.26; as for B13, 1.19; as for B14, 0.22. Consider B15, for which the “ratio of amounts bound (Z=Y/X)” value worked out at 0.19. As for B16, the figure is 0.16.
